The results in this text go back to publication PMC10728069.

The target in data set [1] is T1, His-MoSPAB1ΔSP (Magnaporthe oryzae, UniProt G4N0C3 22-298). As to the kind of experiment: EMSA; […], buffer not stated; […]. As to conditions: protein: recombinant; tags: His, ProS2 (pCold-ProS2); label: 5' biotin (both strands); blunt.
Data set [2] addresses T1, His-MoSPAB1ΔSP. Description: competition; […], buffer not stated; […]. As to conditions: protein: recombinant; tags: His, ProS2 (pCold-ProS2); blunt.

B1: Bsr-d1 promoter probe 5 (dsDNA)
DNA 1: GGTTTTACGACGACGGCAACGGGGACAGAT
DNA 2: ATCTGTCCCCGTTGCCGTCGTCGTAAAACC
In the case of B1, the binding result in the data set with His-MoSPAB1ΔSP [1] is given as “binds”.

B2: Bsr-d1 promoter probe 4 (dsDNA)
DNA 1: AGCTTGATTAATTAGGTTTTACGACGAC
DNA 2: GTCGTCGTAAAACCTAATTAATCAAGCT
Regarding B2, the binding result with His-MoSPAB1ΔSP [1] was “binds”.

B3: probe 1 mutant competitor (dsDNA)
DNA 1: AATCCCATCAAATCATCCAAAAAAAAAT
DNA 2: ATTTTTTTTTGGATGATTTGATGGGATT
For the molecule B3, the binding result with His-MoSPAB1ΔSP [2] is “no binding”.

B4: probe 2 mutant competitor (dsDNA)
DNA 1: ACTAAAGAGAGCTGCTGCTACGTACTA
DNA 2: TAGTACGTAGCAGCAGCTCTCTTTAGT
On to B4, for which the binding result in the data set with His-MoSPAB1ΔSP [2] was “no binding”.

B5: Bsr-d1 promoter probe 3 (dsDNA)
DNA 1: CTACGTACTATACAGCTTGATTAATTAG
DNA 2: CTAATTAATCAAGCTGTATAGTACGTAG
Consider B5, for which the binding result in the data set with His-MoSPAB1ΔSP [1] is “binds”.

B6: Bsr-d1 promoter probe 1 (dsDNA)
DNA 1: AATCCCATCAAATCATCCACCGCTCGCT
DNA 2: AGCGAGCGGTGGATGATTTGATGGGATT
As for B6, in the data set with His-MoSPAB1ΔSP [1], the binding result is listed as “binds”.

B7: Bsr-d1 promoter probe 2 (dsDNA)
DNA 1: ACCGCTCGCTGCTGCTGCTACGTACTA
DNA 2: TAGTACGTAGCAGCAGCAGCGAGCGGT
In the case of B7, in the data set with His-MoSPAB1ΔSP [1], the binding result was “binds”.
